B1: ΔKC2 (structured_RNA)
RNA: GGGCGAAUUCGGGAUUCCGACCAGAAGGGGCUAAGGAAUGGUGGGACGAGCUAGCGGCUGGUAUGUGCGUCU

How the values were obtained:
His6-MBP-FMRP P451S [1] = target: T1, His6-MBP-FMRP P451S (Homo sapiens, UniProt Q06787 1-632, P451S); assay: EMSA; 250 nM protein; FA: 20 mM Tris pH 7.5, 75 mM KCl, 5 mM MgCl2, 1 uM BSA, 1 mM DTT, 100 ng/uL tRNA, ~5 nM RNA, RT 1 h; EMSA: 50 mM Tris pH 7.5, 145 mM KCl, 5 mM MgCl2, 1 uM BSA
[2] = target: T2, His6-MBP-FXR2P P474S and P493N (Homo sapiens, UniProt P51116 1-673, P474S;P493N); assay: as above; settings: protein: recombinant, tags: N-terminal His6-MBP
T2 sequence (P51116 whole entry P474S/P493N): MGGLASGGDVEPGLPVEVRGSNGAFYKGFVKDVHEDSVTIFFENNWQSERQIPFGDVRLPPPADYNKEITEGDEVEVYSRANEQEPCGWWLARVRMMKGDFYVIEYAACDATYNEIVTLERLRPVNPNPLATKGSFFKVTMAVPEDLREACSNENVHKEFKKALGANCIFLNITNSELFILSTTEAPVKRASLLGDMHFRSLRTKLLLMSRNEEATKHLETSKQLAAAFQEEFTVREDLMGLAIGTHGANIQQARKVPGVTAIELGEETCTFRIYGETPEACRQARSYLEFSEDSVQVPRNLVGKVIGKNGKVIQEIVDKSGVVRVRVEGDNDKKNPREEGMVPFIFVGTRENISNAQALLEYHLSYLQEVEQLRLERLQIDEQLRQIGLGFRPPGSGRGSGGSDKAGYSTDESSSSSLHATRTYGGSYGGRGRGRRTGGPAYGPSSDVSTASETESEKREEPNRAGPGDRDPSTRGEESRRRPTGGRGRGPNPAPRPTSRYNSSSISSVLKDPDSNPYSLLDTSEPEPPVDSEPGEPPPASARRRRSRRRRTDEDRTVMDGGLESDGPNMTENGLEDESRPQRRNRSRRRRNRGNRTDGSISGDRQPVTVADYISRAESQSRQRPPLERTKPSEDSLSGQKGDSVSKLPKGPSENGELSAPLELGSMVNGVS

His6-MBP-FMRP P451S [3] = target: T1, His6-MBP-FMRP P451S; assay: fluorescence anisotropy; 75 mM K+, 5 mM Mg2+; FA: 20 mM Tris pH 7.5, 75 mM KCl, 5 mM MgCl2, 1 uM BSA, 1 mM DTT, 100 ng/uL tRNA, ~5 nM RNA, RT 1 h; EMSA: 50 mM Tris pH 7.5, 145 mM KCl, 5 mM MgCl2, 1 uM BSA
[4] = target: T2, His6-MBP-FXR2P P474S and P493N; assay: as above; settings: protein: recombinant; tags: N-terminal His6-MBP; label: 3' fluorescein; G-quadruplex forming

Binder	binding result (His6-MBP-FMRP P451S [1])	binding result ([2]; label: 3' fluorescein, single strand, no predicted G-quadruplex)	Kd (His6-MBP-FMRP P451S [3])	Kd [4]	binding result ([2]; label: 3' fluorescein (FTSC, periodate-oxidized 3' end), loop-loop pseudoknot (kissing complex))
GCUAUCCAGAUUCUGAUU (ssRNA) [CR1]	no binding	no binding			
GGGGGGGGGGGGGGGGGU (structured_RNA) [poly-G17U]			5.6 nM	3.1 ± 0.4 nM	
B1	binds				binds
